# From patent US20240165282A1, “CONFORMATIONAL CONSTRAINED SOMATOSTATIN RECEPTOR 3 PEPTIDE LIGANDS AND THEIR CONJUGATES AND USES THEREOF” (STARGET PHARMA LTD., priority 2021, published 2024)
# *1 amine or outer side, *2 acyl side, *3 side chain or, on linkers, in order; H or OH if unused. Bridges are numbered along the chain shown (N, C = ends). [ ]: non-standard residue; d: D form. The star is where a group is joined. DOTA = O=C(O)CN1CCN(CC(=O)O)CCN(CC(=O)*)CCN(CC(=O)O)CC1; N(2-mercaptoethyl)Gly = O=C(CN(CCS[*:3])[*:1])[*:2]; 4Amb = NCc1ccc(C(=O)O)cc1; Orn = NCCC[C@H](N)C(=O)O; Aoc = NCCCCCCCC(=O)O; GABA = NCCCC(=O)O
# What was measured:
# Test in all cases: Radioligand binding, displacement of 125I-Tyr11-SRIF-14
# hSSTR-4 = target: T1, hSSTR-4 (Homo sapiens, UniProt P31391); conditions: hSSTR-4
# T1 construct: host or cells: Chem-1 (Rat ChemiSCREEN) cells, membrane preparation
# T1 sequence (P31391 whole entry): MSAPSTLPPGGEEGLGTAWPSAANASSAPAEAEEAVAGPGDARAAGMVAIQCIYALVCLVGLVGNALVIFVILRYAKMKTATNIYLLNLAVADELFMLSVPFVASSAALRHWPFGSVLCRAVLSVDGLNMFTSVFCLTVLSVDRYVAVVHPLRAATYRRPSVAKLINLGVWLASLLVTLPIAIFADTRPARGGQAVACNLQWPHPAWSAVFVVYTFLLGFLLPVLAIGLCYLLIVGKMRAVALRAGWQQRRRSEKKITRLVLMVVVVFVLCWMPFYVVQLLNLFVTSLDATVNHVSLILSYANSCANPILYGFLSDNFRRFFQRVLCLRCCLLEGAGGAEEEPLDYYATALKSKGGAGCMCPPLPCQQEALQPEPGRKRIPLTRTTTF
# Text: (§1) The binding to human cloned receptors SSTR-1, or SSTR-2 or SSTR-3 evaluated in stable and selective transfected CHO (Chinese Hamster Ovary) cells and binding to STSR-4 and SSTR-5 in stable and selective transfected Chem-1 (Rat ChemiSCREEN) cells. […] The binding reactions were filtered, the filters were washed, and the bound radioactivity was counted using a gamma counter.
# (§2) The following table depicts the conditions of binding assay to each of the somatostatin receptors used for the evaluations of binding affinities of the tested peptides. All assays were performed by quantitation method of radioligand binding under 25° C. The vehicle was 1% DMSO, the incubation buffer was 25 mM HEPES, pH 7.4, 5 mM MgCl2, 1 mM CaCl2, 0.1% BSA. […] The significance criteria were >50% of max inhibition. […] This specific binding data used for calculation of Bmax values which is the concentration of each of the expressed cloned receptor in its transfected cell system.
# (§3) The Results of IC50 values were determined by a non-linear, least squares regression analysis using MathIQ™ (ID Business Solutions Ltd., UK). […] The Hill coefficient (nH), defining the slope of the competitive binding curve, was calculated using MathIQ™.
# SSTR5 = SSTR5 (Homo sapiens, UniProt P35346); set-up: host or cells: Chem-1 (Rat ChemiSCREEN) cells, membrane preparation; conditions: hSSTR-5
# Chain of SSTR5 (P35346 whole entry): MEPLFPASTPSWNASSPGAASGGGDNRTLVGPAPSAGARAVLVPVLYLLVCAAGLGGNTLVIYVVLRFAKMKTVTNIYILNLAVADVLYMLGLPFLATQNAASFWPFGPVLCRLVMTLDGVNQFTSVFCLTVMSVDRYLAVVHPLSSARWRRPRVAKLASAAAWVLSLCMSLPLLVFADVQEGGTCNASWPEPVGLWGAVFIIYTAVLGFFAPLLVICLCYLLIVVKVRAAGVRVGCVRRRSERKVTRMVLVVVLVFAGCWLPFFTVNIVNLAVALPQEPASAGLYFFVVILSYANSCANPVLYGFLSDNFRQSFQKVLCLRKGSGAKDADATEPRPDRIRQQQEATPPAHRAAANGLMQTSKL
# Text: as §1, §2, §3
# SSTR2 = SSTR2 (Homo sapiens, UniProt P30874); set-up: host or cells: CHO (Chinese Hamster Ovary) cells, membrane preparation; conditions: hSSTR-2
# Chain of SSTR2 (P30874 whole entry): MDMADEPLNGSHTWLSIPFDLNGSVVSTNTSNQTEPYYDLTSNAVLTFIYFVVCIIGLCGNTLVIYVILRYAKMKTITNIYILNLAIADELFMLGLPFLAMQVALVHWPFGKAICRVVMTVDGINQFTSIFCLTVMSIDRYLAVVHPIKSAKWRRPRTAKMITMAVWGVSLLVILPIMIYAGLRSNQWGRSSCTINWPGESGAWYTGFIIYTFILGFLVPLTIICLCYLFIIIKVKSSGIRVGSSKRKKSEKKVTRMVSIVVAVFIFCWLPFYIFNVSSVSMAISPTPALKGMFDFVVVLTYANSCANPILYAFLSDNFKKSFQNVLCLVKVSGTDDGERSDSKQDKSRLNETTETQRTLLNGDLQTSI
# Text: as §1, §2, §3
# SSTR3 = SSTR3 (Homo sapiens, UniProt P32745); set-up: host or cells: CHO (Chinese Hamster Ovary) cells, membrane preparation; conditions: for affinity and selectivity to SSTR3 (in words): binding data; for % displacement of [^125I] Tyr^11-SRIF-14: hSSTR-3
# Chain of SSTR3 (P32745 whole entry): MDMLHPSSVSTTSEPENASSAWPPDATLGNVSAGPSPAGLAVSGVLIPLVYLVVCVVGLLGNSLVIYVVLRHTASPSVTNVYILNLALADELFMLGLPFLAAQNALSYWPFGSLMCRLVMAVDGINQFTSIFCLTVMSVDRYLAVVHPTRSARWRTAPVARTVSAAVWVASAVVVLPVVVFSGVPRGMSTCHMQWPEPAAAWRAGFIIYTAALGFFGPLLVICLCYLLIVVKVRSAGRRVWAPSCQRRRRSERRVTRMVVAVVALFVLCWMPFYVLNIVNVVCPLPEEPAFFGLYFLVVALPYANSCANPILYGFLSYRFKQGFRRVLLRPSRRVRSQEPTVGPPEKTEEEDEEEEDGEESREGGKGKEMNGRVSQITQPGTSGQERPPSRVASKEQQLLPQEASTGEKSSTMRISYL
# Text: as §1, §2, §3
# SSTR1 = SSTR1 (Homo sapiens, UniProt P30872); set-up: host or cells: CHO (Chinese Hamster Ovary) cells, membrane preparation; conditions: hSSTR-1
# Chain of SSTR1 (P30872 whole entry): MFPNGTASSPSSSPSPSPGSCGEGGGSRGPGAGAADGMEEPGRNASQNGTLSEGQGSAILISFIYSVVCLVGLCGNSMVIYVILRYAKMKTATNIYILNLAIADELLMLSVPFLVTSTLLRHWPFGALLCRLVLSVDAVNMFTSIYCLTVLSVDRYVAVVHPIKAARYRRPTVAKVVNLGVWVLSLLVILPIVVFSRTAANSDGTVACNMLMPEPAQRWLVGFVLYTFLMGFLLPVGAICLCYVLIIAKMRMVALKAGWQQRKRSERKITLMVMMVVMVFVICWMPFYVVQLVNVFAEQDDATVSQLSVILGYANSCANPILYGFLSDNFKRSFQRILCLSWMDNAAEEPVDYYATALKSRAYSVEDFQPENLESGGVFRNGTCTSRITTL
# Text: as §1, §2, §3
Substance,% displacement of [^125I] Tyr^11-SRIF-14 (hSSTR-4; at 1 nM (in brackets)),% displacement of [^125I] Tyr^11-SRIF-14 (hSSTR-4; at 10 nM),% displacement of [^125I] Tyr^11-SRIF-14 (SSTR5; at 1 nM (in brackets)),% displacement of [^125I] Tyr^11-SRIF-14 (SSTR5; at 10 nM),% displacement of [^125I] Tyr^11-SRIF-14 (SSTR2; at 1 nM (in brackets)),% displacement of [^125I] Tyr^11-SRIF-14 (SSTR2; at 10 nM),affinity and selectivity to SSTR3 (in words) (SSTR3),% displacement of [^125I] Tyr^11-SRIF-14 (SSTR3; at 1 nM (in brackets)) [%],% displacement of [^125I] Tyr^11-SRIF-14 (SSTR3; at 10 nM) [%],% displacement of [^125I] Tyr^11-SRIF-14 (SSTR1; at 1 nM (in brackets)) [%],% displacement of [^125I] Tyr^11-SRIF-14 (SSTR1; at 10 nM) [%],affinity to SSTR3 (SSTR3) [nM]
gallium labelled DOTA-GABA-D-Phe^1-Arg^2-Cys^3-Phe^4-D-Trp^5-Lys^6-Thr^7-Phe^8-NTEG^9-NH2 (cyclo 3-9) ({DOTA-GABA}-[dF]RCF[dW]KTF[N(2-mercaptoethyl)Gly]-NH2; disulfide 3-9; also: gallium complex of DOTA) [SEQ ID NO: 8],5%,4%,0%,15%,0%,10%,"maintains the same affinity and selectivity to SSTR3 as SEQ ID NO. 1, and SEQ ID NO. 3-7",61,88,0,10,–
DOTA-D-Phe^1-Glu^2-Orn^3-Cys^4-Phe^5-D-Trp^6-Lys^7-Thr^8-Phe^9-NTEG^10-NH2 (cyclo 4-10) ({DOTA}-[dF]E[Orn]CF[dW]KTF[N(2-mercaptoethyl)Gly]-NH2; disulfide 4-10; SMILES C[C@@H](O)[C@@H]1NC(=O)[C@H](CCCCN)NC(=O)[C@@H](Cc2c[nH]c3ccccc23)NC(=O)[C@H](Cc2ccccc2)NC(=O)[C@@H](NC(=O)[C@H](CCCN)NC(=O)[C@H](CCC(=O)O)NC(=O)[C@@H](Cc2ccccc2)NC(=O)CN2CCN(CC(=O)O)CCN(CC(=O)O)CCN(CC(=O)O)CC2)CSSCCN(CC(N)=O)C(=O)[C@H](Cc2ccccc2)NC1=O) [SEQ ID NO: 23],0(0) %,0(0) %,0(0) %,0(0) %,0(0) %,0(0) %,–,19,56,4,6,–
DOTA-4-Amb-D-Phe^1-Arg^2-Cys^3-Phe^4-D-Trp^5-Lys^6-Thr^7-Phe^8-NTEG^9-NH2 (cyclo 3-9) ({DOTA-4Amb}-[dF]RCF[dW]KTF[N(2-mercaptoethyl)Gly]-NH2; disulfide 3-9) [SEQ ID NO: 18],0%,8%,0(0) %,0(0) %,0(0) %,0(0) %,–,49,85,0,4,–
H-Phe^1-Arg^2-Cys^3-Phe^4-D-Trp^5-Lys^6-Thr^7-Tyr^8-NTEG^9-NH2 (cyclo 3-9) (H-XRCF[dW]KTY[N(2-mercaptoethyl)Gly]-NH2; disulfide 3-9; not fully specified (residue 1); printed as H-Phe1-Arg2-Cys3-Phe4-D-Trp5-Lys6-Thr7-Tyr8-NTEG9-NH2 (cyclo 3-9)) [SEQ ID NO: 26],0(0) %,0(0) %,0%,1%,0(0) %,0(0) %,–,53,86,0,24,–
DOTA-D-Phe^1-Orn^2-Cys^3-Phe^4-D-Trp^5-Lys^6-Thr^7-Phe^8-NTEG^9-NH2 cyclo 3-9 [SEQ ID NO: 21],9(9) %,9(9) %,0(0) %,0(0) %,0%,2%,did not interfere with the affinity and selectivity to SSTR3,59,93,23,22,–
Niraparib-CO(CH2)3CO-D-Phe^1-Arg^2-Cys^3-Phe^4-D-Trp^5-Lys^6-Thr^7-Phe^8-NTEG^9-NH2 cyclo 3-9 [SEQ ID NO: 28],0(0) %,0(0) %,0(0) %,0(0) %,0(0) %,0(0) %,the same selectivity to SSTR3 as SEQ ID NO: 1,28,79,12,23,≤ 10
DOTA-D-Phe^1-Glu^2-Glu^3-Orn^4-Cys^5-Phe^6-D-Trp^7-Lys^8-Thr^9-Phe^10-NTEG^11-NH2 (cyclo 5-11) ({DOTA}-[dF]EE[Orn]CF[dW]KTF[N(2-mercaptoethyl)Gly]-NH2; disulfide 5-11; SMILES C[C@@H](O)[C@@H]1NC(=O)[C@H](CCCCN)NC(=O)[C@@H](Cc2c[nH]c3ccccc23)NC(=O)[C@H](Cc2ccccc2)NC(=O)[C@@H](NC(=O)[C@H](CCCN)NC(=O)[C@H](CCC(=O)O)NC(=O)[C@H](CCC(=O)O)NC(=O)[C@@H](Cc2ccccc2)NC(=O)CN2CCN(CC(=O)O)CCN(CC(=O)O)CCN(CC(=O)O)CC2)CSSCCN(CC(N)=O)C(=O)[C@H](Cc2ccccc2)NC1=O) [SEQ ID NO: 22],0%,3%,0(0) %,0(0) %,0(0) %,0(0) %,did not interfere with the affinity and selectivity to SSTR3,0,49,8,7,–
DOTA-8-aminooctanoic acid-D-Phe^1-Arg^2-Cys^3-Phe4-D-Trp^5-Lys^6-Thr^7-Phe^8-NTEG^9-NH^2(cyclo 3-9) ({DOTA-Aoc}-[dF]RCF[dW]KTF[N(2-mercaptoethyl)Gly]-NH2; disulfide 3-9) [SEQ ID NO: 15],0(0) %,0(0) %,0(0) %,0(0) %,1%,0%,–,49,87,6,18,–
DOTA-D-Phe^1-Arg^2-Cys^3-Tyr^4-D-Trp^5-Lys^6-Thr^7-Phe^8-NTEG^9-NH2 (cyclo 3-9) ({DOTA}-[dF]RCY[dW]KTF[N(2-mercaptoethyl)Gly]-NH2; disulfide 3-9; SMILES C[C@@H](O)[C@@H]1NC(=O)[C@H](CCCCN)NC(=O)[C@@H](Cc2c[nH]c3ccccc23)NC(=O)[C@H](Cc2ccc(O)cc2)NC(=O)[C@@H](NC(=O)[C@H](CCCNC(=N)N)NC(=O)[C@@H](Cc2ccccc2)NC(=O)CN2CCN(CC(=O)O)CCN(CC(=O)O)CCN(CC(=O)O)CC2)CSSCCN(CC(N)=O)C(=O)[C@H](Cc2ccccc2)NC1=O) [SEQ ID NO: 25],5%,8%,6%,16%,0(0) %,0(0) %,–,65,94,1,15,–
